# Data published in article doi:10.1101/402123 (bioRxiv, 2018).
# No end group written: not given here. fluorescein = N-terminal fluorescein label
# B1: integrin β4 1436-1666 (β4-CS-FnIII-3,4) (domain or fragment, human, UniProt P16144-2 1436-1666, looked up)
# chain: LPRDYSTLTSVSSHDSRLTAGVPDTPTRLVFSALGPTSLRVSWQEPRCERPLQGYSVEYQLLNGGELHRLNIPNPAQTSVVVEDLLPNHSYVFRVRAQSQEGWGREREGVITIESQVHPQSPLCPLPGSAFTLSTPSAPGPLVFTALSPDSLQLSWERPRRPNGDIVGYLVTCEMAQGGGPATAFRVDGDSPESRLTVPGLSENVPYKFKVQARTTEGFGPEREGIITIES
# B2: fluorescein-labeled BP230 peptide 26-55 (peptide, UniProt Q03001-8 26-55, looked up)
# peptide: fluorescein-DSNENLLLVHCGPTLINSCISFGSESFDGH
# modifications: cysteine pairing not given here
# Legend:
# BP230 41-162 = biological target: T1, BP230 41-162 (human, UniProt Q03001-8 41-162, Oregon Green 488 on thiol groups); experiment: fluorescence polarisation
# T1 sequence (looked up): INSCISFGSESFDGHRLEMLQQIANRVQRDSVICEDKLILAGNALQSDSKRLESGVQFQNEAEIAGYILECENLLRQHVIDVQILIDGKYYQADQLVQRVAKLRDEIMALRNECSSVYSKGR
# [1] = biological target: T2, fluorescein-labeled BP230 peptide 37-55 (human, UniProt Q03001-8 37-55); experiment: fluorescence polarisation
# T2 peptide (looked up): fluorescein-GPTLINSCISFGSESFDGH
# BP230 10-162 T39D = biological target: T3, BP230 10-162 T39D (human, UniProt Q03001-8 10-162, T39D, Oregon Green 488 on thiol groups); experiment: fluorescence polarisation
# T3 sequence (looked up): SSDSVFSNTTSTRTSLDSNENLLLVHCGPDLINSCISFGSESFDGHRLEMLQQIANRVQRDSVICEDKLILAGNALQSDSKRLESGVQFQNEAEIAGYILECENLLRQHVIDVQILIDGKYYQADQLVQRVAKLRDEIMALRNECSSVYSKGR
# [2] = biological target: fluorescein-labeled BP230 peptide 26-47 (human) (UniProt Q03001); experiment: fluorescence polarisation
# [3] = biological target: B2; experiment: fluorescence polarisation
# [4] = biological target: T4, β4-CS-FnIII-3,4 (1436-1666) T1663R (human, UniProt P16144-2 1436-1666, T1663R); experiment: fluorescence polarisation
# T4 sequence (looked up): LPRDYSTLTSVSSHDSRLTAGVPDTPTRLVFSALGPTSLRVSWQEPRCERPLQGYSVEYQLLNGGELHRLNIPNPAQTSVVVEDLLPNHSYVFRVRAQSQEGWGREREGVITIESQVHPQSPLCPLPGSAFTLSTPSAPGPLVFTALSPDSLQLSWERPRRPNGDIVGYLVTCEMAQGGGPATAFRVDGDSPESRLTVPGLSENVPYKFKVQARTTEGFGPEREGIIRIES
# [5] = biological target: B1; experiment: fluorescence polarisation
# [6] = biological target: T5, β4-FnIII-3,4 (1457-1666) mutant T1663R (human, UniProt P16144-2 1457-1666, T1663R); experiment: crystal structure
# T5 sequence (looked up): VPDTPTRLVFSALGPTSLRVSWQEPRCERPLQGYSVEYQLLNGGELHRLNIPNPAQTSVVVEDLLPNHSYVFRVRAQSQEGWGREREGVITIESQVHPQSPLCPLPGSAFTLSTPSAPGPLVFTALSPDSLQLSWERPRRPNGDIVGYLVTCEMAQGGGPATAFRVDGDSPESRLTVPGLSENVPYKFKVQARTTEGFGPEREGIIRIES
binder,measurement,setting,value
B1,fold increase in Kd against the longer BP230 constructs,BP230 41-162,5 fold
same,fold increase in Kd against the BP230 26-55 peptide,[1],3 fold
same,fold increase in Kd against WT BP230 10-162,BP230 10-162 T39D,~3 fold
same,fold increase in Kd against the BP230 26-55 peptide,[2],5 fold
"β4-CS-FnIII-3,4 (1436-1666) P1576R (domain or fragment, human, UniProt P16144-2 1436-1666, looked up) LPRDYSTLTSVSSHDSRLTAGVPDTPTRLVFSALGPTSLRVSWQEPRCERPLQGYSVEYQLLNGGELHRLNIPNPAQTSVVVEDLLPNHSYVFRVRAQSQEGWGREREGVITIESQVHPQSPLCPLPGSAFTLSTPSAPGRLVFTALSPDSLQLSWERPRRPNGDIVGYLVTCEMAQGGGPATAFRVDGDSPESRLTVPGLSENVPYKFKVQARTTEGFGPEREGIITIES",fold increase in Kd against WT β4,[3],> 2 fold
B2,binding result,[4],binds
"BP230 10-162 S46A (domain or fragment, human, UniProt Q03001-8 10-162, looked up, Oregon Green 488 on thiol groups) SSDSVFSNTTSTRTSLDSNENLLLVHCGPTLINSCIAFGSESFDGHRLEMLQQIANRVQRDSVICEDKLILAGNALQSDSKRLESGVQFQNEAEIAGYILECENLLRQHVIDVQILIDGKYYQADQLVQRVAKLRDEIMALRNECSSVYSKGR",binding result,[5],binds
"β4-CS-FnIII-3,4 (1436-1666) I1661R/T1663R (domain or fragment, human, UniProt P16144-2 1436-1666, looked up) LPRDYSTLTSVSSHDSRLTAGVPDTPTRLVFSALGPTSLRVSWQEPRCERPLQGYSVEYQLLNGGELHRLNIPNPAQTSVVVEDLLPNHSYVFRVRAQSQEGWGREREGVITIESQVHPQSPLCPLPGSAFTLSTPSAPGPLVFTALSPDSLQLSWERPRRPNGDIVGYLVTCEMAQGGGPATAFRVDGDSPESRLTVPGLSENVPYKFKVQARTTEGFGPEREGRIRIES",fold reduction in Kd against WT β4,[3],~8 fold
"DSNENLLLVHCGPTLINSCISFGSESFDGH (peptide, UniProt Q03001-8 26-55, looked up) [unlabeled BP230 peptide 26-55]",binding result,[6],binds
